Source: publication PMC5290946

Target: His-MxiC(C184A/C233S/A247C/S290C), labelled with MTSL (Shigella flexneri) (UniProt Q04640)
Assay: continuous wave EPR; X-band, room temperature; MTSL-labelled His-MxiC(Cys) at ~75 μM with a 10-fold (~750 μM) or n-fold excess of the unlabelled partner, in 20 mM Tris-HCl pH 7.5, 100 mM NaCl; binding read from the change of the spin labels' spectrum; KD estimated from the molar ratio that gives half of the maximal change

Question: With “His6-IpaD(15-332) C322S (from UniProt P18013 15-332) (domain or fragment)” as the substance, how does the Kd read?
Answer: 730 µM
